# Results published in US20210403506A1 (XDCEXPLORER SHANGHAI, published 2021).
# Square brackets hold non-standard residues; d marks the D form. Primed or numbered codes have the meaning given here. Ends that are not written are not given here. * marks the point of attachment. azaTic = 3,4-dihydropyridazine-2(H)-formic acid; Pro(5R-Ph) = O=C(O)[C@@H]1CC[C@H](c2ccccc2)N1; Pro(4Ph)″ = 4-phenylproline (Pro(4-phenyl)); Bip = N[C@@H](Cc1ccc(-c2ccccc2)cc1)C(=O)O; PEG8 = NCCOCCOCCOCCOCCOCCOCCOCCOCCC(=O)O; Gly(Nα-CH2CH2CONH2) = NC(=O)CCNCC(=O)O; 1Nal = N[C@@H](Cc1cccc2ccccc12)C(=O)O; 2Nal = N[C@@H](Cc1ccc2ccccc2c1)C(=O)O; dNMeY = CN[C@H](Cc1ccc(O)cc1)C(=O)O; Palmitoyl = CCCCCCCCCCCCCCCC(=O)*; NMeQ = CN[C@@H](CCC(N)=O)C(=O)O; Tic = O=C(O)[C@@H]1Cc2ccccc2CN1; NMeL = CN[C@@H](CC(C)C)C(=O)O; NMeV = CN[C@H](C(=O)O)C(C)C; NMeS = CN[C@@H](CO)C(=O)O; dNMeS = CN[C@H](CO)C(=O)O; Thz = O=C(O)[C@@H]1CSCN1; dNMeA = CN[C@H](C)C(=O)O; Nleu = CC(C)CNCC(=O)O; βAla = NCCC(=O)O
# T1: human Chemokine like receptor 1 (human, UniProt Q99788 1-373)
# T1 sequence (looked up): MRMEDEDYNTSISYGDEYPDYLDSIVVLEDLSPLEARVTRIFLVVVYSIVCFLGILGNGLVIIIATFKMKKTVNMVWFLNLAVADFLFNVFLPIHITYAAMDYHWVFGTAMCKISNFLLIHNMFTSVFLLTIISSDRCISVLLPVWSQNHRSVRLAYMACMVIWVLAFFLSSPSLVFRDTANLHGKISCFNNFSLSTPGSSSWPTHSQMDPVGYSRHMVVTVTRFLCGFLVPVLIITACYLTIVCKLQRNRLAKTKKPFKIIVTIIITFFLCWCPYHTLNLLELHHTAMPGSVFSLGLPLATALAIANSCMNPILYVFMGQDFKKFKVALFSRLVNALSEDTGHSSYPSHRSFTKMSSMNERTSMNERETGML
# B1: YW-160 (peptide)
# peptide: [dY]FLP[dS]QF[dA][Tic]T-OH
# modifications: N-terminus assumed
# SMILES: CC(C)C[C@H](NC(=O)[C@H](Cc1ccccc1)NC(=O)[C@H](N)Cc1ccc(O)cc1)C(=O)N1CCC[C@H]1C(=O)N[C@H](CO)C(=O)N[C@@H](CCC(N)=O)C(=O)N[C@@H](Cc1ccccc1)C(=O)N[C@H](C)C(=O)N1Cc2ccccc2C[C@H]1C(=O)N[C@H](C(=O)O)[C@@H](C)O
# B2: YW-146 (peptide)
# peptide: [dNMeY]F[NMeL]P[dS]Q[2Nal][dA][Tic][NMeS]-OH
# modifications: N-terminus assumed
# SMILES: CN[C@H](Cc1ccc(O)cc1)C(=O)N[C@@H](Cc1ccccc1)C(=O)N(C)[C@@H](CC(C)C)C(=O)N1CCC[C@H]1C(=O)N[C@H](CO)C(=O)N[C@@H](CCC(N)=O)C(=O)N[C@@H](Cc1ccc2ccccc2c1)C(=O)N[C@H](C)C(=O)N1Cc2ccccc2C[C@H]1C(=O)N(C)[C@@H](CO)C(=O)O
# B3: YW-98 (peptide)
# peptide: [dY]F[NMeL]P[dS]QF[dA][Tic]S-OH
# modifications: N-terminus assumed
# SMILES: CC(C)C[C@@H](C(=O)N1CCC[C@H]1C(=O)N[C@H](CO)C(=O)N[C@@H](CCC(N)=O)C(=O)N[C@@H](Cc1ccccc1)C(=O)N[C@H](C)C(=O)N1Cc2ccccc2C[C@H]1C(=O)N[C@@H](CO)C(=O)O)N(C)C(=O)[C@H](Cc1ccccc1)NC(=O)[C@H](N)Cc1ccc(O)cc1
# B4: YW-142 (peptide)
# peptide: [dNMeY]F[NMeL][Thz][dS]Q[1Nal][dA][Tic][NMeS]-OH
# modifications: N-terminus assumed
# SMILES: CN[C@H](Cc1ccc(O)cc1)C(=O)N[C@@H](Cc1ccccc1)C(=O)N(C)[C@@H](CC(C)C)C(=O)N1CSC[C@H]1C(=O)N[C@H](CO)C(=O)N[C@@H](CCC(N)=O)C(=O)N[C@@H](Cc1cccc2ccccc12)C(=O)N[C@H](C)C(=O)N1Cc2ccccc2C[C@H]1C(=O)N(C)[C@@H](CO)C(=O)O
# B5: YW-133 (peptide)
# peptide: {Palmitoyl-PEG8}-GG[dY]F[NMeL]P[dS]QF[dA][Tic]S-OH
# SMILES: CCCCCCCCCCCCCCCC(=O)NCCOCCOCCOCCOCCOCCOCCOCCOCCC(=O)NCC(=O)NCC(=O)N[C@H](Cc1ccc(O)cc1)C(=O)N[C@@H](Cc1ccccc1)C(=O)N(C)[C@@H](CC(C)C)C(=O)N1CCC[C@H]1C(=O)N[C@H](CO)C(=O)N[C@@H](CCC(N)=O)C(=O)N[C@@H](Cc1ccccc1)C(=O)N[C@H](C)C(=O)N1Cc2ccccc2C[C@H]1C(=O)N[C@@H](CO)C(=O)O
# B6: YW-132 (peptide)
# peptide: [dY]FLP[dS]QF[dA][Tic]S-OH
# modifications: not fully specified (N-terminus); printed as 3,5-dihydroxyphenylacetyl-(D-Tyr)-Phe-Leu-Pro-(D-Ser)-Gln-Phe-(D-Ala)-Tic-Ser-OH
# B7: YW-134 (peptide)
# peptide: {Palmitoyl-PEG8}-[βAla][βAla][dY]F[NMeL]P[dS]QF[dA][Tic]S-OH
# SMILES: CCCCCCCCCCCCCCCC(=O)NCCOCCOCCOCCOCCOCCOCCOCCOCCC(=O)NCCC(=O)NCCC(=O)N[C@H](Cc1ccc(O)cc1)C(=O)N[C@@H](Cc1ccccc1)C(=O)N(C)[C@@H](CC(C)C)C(=O)N1CCC[C@H]1C(=O)N[C@H](CO)C(=O)N[C@@H](CCC(N)=O)C(=O)N[C@@H](Cc1ccccc1)C(=O)N[C@H](C)C(=O)N1Cc2ccccc2C[C@H]1C(=O)N[C@@H](CO)C(=O)O
# B8: YW-91 (peptide)
# peptide: [dY]FLP[dS]QF[dA][Pro(5R-Ph)]S-OH
# modifications: N-terminus assumed
# SMILES: CC(C)C[C@H](NC(=O)[C@H](Cc1ccccc1)NC(=O)[C@H](N)Cc1ccc(O)cc1)C(=O)N1CCC[C@H]1C(=O)N[C@H](CO)C(=O)N[C@@H](CCC(N)=O)C(=O)N[C@@H](Cc1ccccc1)C(=O)N[C@H](C)C(=O)N1[C@@H](c2ccccc2)CC[C@H]1C(=O)N[C@@H](CO)C(=O)O
# B9: YW-125 (peptide)
# peptide: [dNMeY]F[NMeL][Thz][dS]Q[2Nal][dA][Tic][NMeS]-OH
# modifications: N-terminus assumed
# SMILES: CN[C@H](Cc1ccc(O)cc1)C(=O)N[C@@H](Cc1ccccc1)C(=O)N(C)[C@@H](CC(C)C)C(=O)N1CSC[C@H]1C(=O)N[C@H](CO)C(=O)N[C@@H](CCC(N)=O)C(=O)N[C@@H](Cc1ccc2ccccc2c1)C(=O)N[C@H](C)C(=O)N1Cc2ccccc2C[C@H]1C(=O)N(C)[C@@H](CO)C(=O)O
# Target: T1, human Chemokine like receptor 1
# Assay: cell-based or functional assay
row,Binder,"EC50 (µM), activation of Tango CMKLR1-bla U2OS cells"
1,[dY]FLP[dS][NMeQ]F[dA][Tic]S-OH [YW-107],> 50 µM
2,[dY]FLP[dNMeS]QF[dA][Tic]S-OH [YW-106],24 µM
3,B1,0.285 µM
4,B2,0.0014 µM
5,[dY]FLP[dS]QF[dA][Bip]S-OH [YW-95],30 µM
6,B3,0.003 µM
7,[dY]F[Nleu]P[dS]QF[dA][Tic]S-OH [YW-102],0.31 µM
8,B4,0.0009 µM
9,[dY]FLP[dS]QF[dA][Ala(dip)]S-OH [YW-94],8.7 µM
10,[dY]FLP[dS]QF[dA][Pro(4Ph)″]S-OH [YW-92],1 µM
11,B5,0.0007 µM
12,[dY]FLP[dS]QF[dNMeA][Tic]S-OH [YW-109],11 µM
13,B6,0.0055 µM
14,B7,0.0007 µM
15,[dY]F[NMeV]P[dS]QF[dA][Tic]S-OH [YW-99],12 µM
16,[dY]FLP[dS][Gly(Nα-CH2CH2CONH2)]F[dA][Tic]S-OH [YW-108],> 50 µM
17,"{3,5‑dihydroxyphenylacetyl}-[dY]FLP[dS]QF[dA][Tic]S [YW-131]",0.0029 µM
18,[dY]FLP[dS]Q[dS][dA][azaTic]S-OH [YW-147],> 50 µM
19,B8,0.46 µM
20,B9,0.0006 µM
21,[dY]FLP[dS]QF[dA][S‑Pip]S-OH [YW-90],> 50 µM
